Results on three molecules are retold here after patent publication US20240301049A1 (Ablynx, published 2024).

Among the targets are cyno TNF-α (cynomolgus monkey, UniProt P79337 77-233); human IL-6 (human, UniProt P05231 30-212); human TNF-α (human, UniProt P01375 77-233).
Holding throughout (assay): cell-based or functional assay
The target in a further assay is T1, cyno IL-6 (cynomolgus monkey, UniProt P79341 28-212, limits assumed).
T1 sequence (looked up): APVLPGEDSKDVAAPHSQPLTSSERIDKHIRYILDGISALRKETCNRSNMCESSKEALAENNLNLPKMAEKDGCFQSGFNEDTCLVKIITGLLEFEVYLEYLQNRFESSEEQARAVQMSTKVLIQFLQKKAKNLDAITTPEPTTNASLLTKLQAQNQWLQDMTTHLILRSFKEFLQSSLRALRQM

cyno TNF-α, sequence (P79337 77-233 limits assumed): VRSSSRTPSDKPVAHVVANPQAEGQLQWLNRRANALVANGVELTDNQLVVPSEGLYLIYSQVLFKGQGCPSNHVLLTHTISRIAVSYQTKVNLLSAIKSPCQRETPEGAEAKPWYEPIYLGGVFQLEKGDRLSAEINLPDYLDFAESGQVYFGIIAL
human TNF-α, sequence (P01375 77-233 limits assumed): as the sequence (P79337 77-233 limits assumed) above, with V37L, T44R, N72T, L138R counted along it

B1: F027200154 (bispecific antibody)
chain: EVQLVESGGGVVQPGGSLRLSCTASGFTFSTADMGWFRQAPGKGREFVARISGIDGTTYYDEPVKGRFTISRDNSKNTVYLQMNSLRPEDTALYYCRSPRYADQWSAYDYWGQGTLVKVSSGGGGSGGGSEVQLVESGGGVVQPGGSLRLSCAASGFTFRSFGMSWVRQAPGKGPEWVSSISGSGSDTLYADSVKGRFTISRDNSKNTLYLQMNSLRPEDTALYYCTIGGSLSRSSQGTLVTVSSGGGGSGGGSEVQLVESGGGVVQPGGSLRLSCAASGIIFSINAMGWYRQAPGKQRELVADIFPFGSTEYADSVKGRFTISRDNAKNTVYLQMNSLRPEDTALYYCHSYDPRGDDYWGQGTLVTVSSGGGGSGGGSDVQLVESGGGVVQPGGSLRLSCAASGRTFSNYAMAWFRQAPGKEREFVAVISYAGGRTYYADSVKGRFTISRDNAKNTVYLQMNSLRPEDTALYYCAAVDSPLIATHPRGYDYWGQGTLVTVSS
Regarding B1, the “Ratio IC50 cyno TNFα/hTNFα” value with cyno TNF-α amounted to 2.8 ratio. For the same molecule, in the assay with human IL-6, the “IC50 hIL-6 TF1 proliferation assay” value came to 415 pM. The “Ratio IC50 cyno IL-6/hIL-6” value with cyno IL-6 was 2.1 ratio. Besides, in the assay with human TNF-α, the “IC50 hTNF-α Nfkb assay” value turned out to be 164 pM.

B2: F027200215 (bispecific antibody)
chain: EVQLVESGGGVVQPGGSLRLSCAASGIIFSINAMGWYRQAPGKQRELVADIFPFGSTEYADSVKGRFTISRDNAKNTVYLQMNSLRPEDTALYYCHSYDPRGDDYWGQGTLVTVSSGGGGSGGGSDVQLVESGGGVVQPGGSLRLSCAASGRTFSNYAMAWFRQAPGKEREFVAVISYAGGRTYYADSVKGRFTISRDNAKNTVYLQMNSLRPEDTALYYCAAVDSPLIATHPRGYDYWGQGTLVTVSSGGGGSGGGSEVQLVESGGGVVQPGGSLRLSCAASGFTFRSFGMSWVRQAPGKGPEWVSSISGSGSDTLYADSVKGRFTISRDNSKNTLYLQMNSLRPEDTALYYCTIGGSLSRSSQGTLVTVSSGGGGSGGGSEVQLVESGGGVVQPGGSLRLSCTASGFTFSTADMGWFRQAPGKGREFVARISGIDGTTYYDEPVKGRFTISRDNSKNTVYLQMNSLRPEDTALYYCRSPRYADQWSAYDYWGQGTLVKVSS
As for B2, the “Ratio IC50 cyno TNFα/hTNFα” value in the assay with cyno TNF-α was determined as 2.7 ratio. Also, in the assay with human IL-6, the “IC50 hIL-6 TF1 proliferation assay” value was determined as 302 pM. Also, in the assay with cyno IL-6, the “Ratio IC50 cyno IL-6/hIL-6” value is 2 ratio. The “IC50 hTNF-α Nfkb assay” value in the assay with human TNF-α worked out at 239 pM.

B3: F027200168 (bispecific antibody)
chain: EVQLVESGGGVVQPGGSLRLSCAASGIIFSINAMGWYRQAPGKQRELVADIFPFGSTEYADSVKGRFTISRDNAKNTVYLQMNSLRPEDTALYYCHSYDPRGDDYWGQGTLVTVSSGGGGSGGGSEVQLVESGGGVVQPGGSLRLSCAASGFTFRSFGMSWVRQAPGKGPEWVSSISGSGSDTLYADSVKGRFTISRDNSKNTLYLQMNSLRPEDTALYYCTIGGSLSRSSQGTLVTVSSGGGGSGGGSEVQLVESGGGVVQPGGSLRLSCAASGRTFSSYVMGWFRQAPGKEREFVSTINWAGSRGYYADSVKGRFTISRDNAKNTVYLQMNSLRPEDTALYYCAASAGGFLVPRVGQGYDYWGQGTLVTVSSGGGGSGGGSEVQLVESGGGVVQPGGSLRLSCTASGFTFSTADMGWFRQAPGKGREFVARISGIDGTTYYDEPVKGRFTISRDNSKNTVYLQMNSLRPEDTALYYCRSPRYADQWSAYDYWGQGTLVKVSS
In the case of B3, the “Ratio IC50 cyno TNFα/hTNFα” value with cyno TNF-α worked out at 3.3 ratio. In the assay with human IL-6, the “IC50 hIL-6 TF1 proliferation assay” value came to 966 pM. Further, in the assay with cyno IL-6, the “Ratio IC50 cyno IL-6/hIL-6” value stood at 1.6 ratio. Also, the “IC50 hTNF-α Nfkb assay” value with human TNF-α came to 140 pM.
